The values below come from article PMC3280358 (Molecular Cell, 2012).

The target in this assay is T1, recombinant full-length FLAG-Nbs1 (human, UniProt O60934 1-754).
T1 construct: Nbs1 (Nijmegen breakage syndrome gene product), human, full length; also called recombinant full-length Nbs1; source: recombinant, a gift from Tanya Paull
T1 sequence (looked up): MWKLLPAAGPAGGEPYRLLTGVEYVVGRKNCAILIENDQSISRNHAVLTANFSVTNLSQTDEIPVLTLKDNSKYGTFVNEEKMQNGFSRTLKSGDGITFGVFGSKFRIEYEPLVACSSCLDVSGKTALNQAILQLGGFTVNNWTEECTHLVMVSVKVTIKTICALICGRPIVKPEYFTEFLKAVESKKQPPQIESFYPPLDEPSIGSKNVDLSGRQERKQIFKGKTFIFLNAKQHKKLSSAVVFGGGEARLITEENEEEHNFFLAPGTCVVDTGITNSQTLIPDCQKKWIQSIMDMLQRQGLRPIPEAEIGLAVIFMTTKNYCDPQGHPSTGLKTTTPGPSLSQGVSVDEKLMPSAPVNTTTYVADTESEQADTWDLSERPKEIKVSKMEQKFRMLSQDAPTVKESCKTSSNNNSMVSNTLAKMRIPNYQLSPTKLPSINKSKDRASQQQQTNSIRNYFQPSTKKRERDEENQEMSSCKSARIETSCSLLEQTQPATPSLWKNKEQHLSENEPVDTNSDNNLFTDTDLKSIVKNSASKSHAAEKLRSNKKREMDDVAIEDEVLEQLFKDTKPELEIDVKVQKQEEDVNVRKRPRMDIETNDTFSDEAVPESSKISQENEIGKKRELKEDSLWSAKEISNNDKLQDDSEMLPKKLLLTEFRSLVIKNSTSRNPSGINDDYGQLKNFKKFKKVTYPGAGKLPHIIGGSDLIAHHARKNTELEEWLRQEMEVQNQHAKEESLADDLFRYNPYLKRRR
Kind of assay: far-Western, overlay or dot blot; Rad51 NTD kinase reaction (250 μM ATP) resolved by SDS-PAGE, transferred to nitrocellulose, incubated with recombinant full-length FLAG-Nbs1 (∼ 2 μg), detected with anti-Nbs1 antibody. Particulars: both partners purified.

B1: Rad51 NTD with S14D substitution (domain or fragment, human, UniProt Q06609 1-86, looked up)
chain: MAMQMQLEANADTDVEEESFGPQPISRLEQCGINANDVKKLEEAGFHTVEAVAYAPKKELINIKGISEAKADKILAEAAKLVPMGF
notes: also called NTD S14D; source: recombinant
With B1, the binding result is recorded as “binds”.

B2: Rad51 NTD with S14E substitution (domain or fragment, human, UniProt Q06609 1-86, looked up)
chain: MAMQMQLEANADTEVEEESFGPQPISRLEQCGINANDVKKLEEAGFHTVEAVAYAPKKELINIKGISEAKADKILAEAAKLVPMGF
notes: also called NTD S14E; source: recombinant
As for B2, the binding result is on record as “binds”.
